The results in this text go back to paper PMC9709061, “HSP90-CDC37-PP5 forms a structural platform for kinase dephosphorylation” (Nature Communications, 2022).

The target in one assay is T1, BRAF^V600E (human, UniProt P15056 1-766, V600E, phosphorylated as purified: Ser151, Ser339, Ser365, Thr401, Ser429, Ser432, Ser446, Ser614, Ser675, Ser729, Ser750, Thr753 (mass spectrometry; pSer729 also by western blot)).
T1 construct: human BRAF, full length (84 kDa), oncogenic V600E mutant; A 3C site lies between protein and tag; no cleavage step is described; also called kinase client; not shown: 2xStrep, N-terminal, kept
T1 sequence (P15056 whole entry V600E): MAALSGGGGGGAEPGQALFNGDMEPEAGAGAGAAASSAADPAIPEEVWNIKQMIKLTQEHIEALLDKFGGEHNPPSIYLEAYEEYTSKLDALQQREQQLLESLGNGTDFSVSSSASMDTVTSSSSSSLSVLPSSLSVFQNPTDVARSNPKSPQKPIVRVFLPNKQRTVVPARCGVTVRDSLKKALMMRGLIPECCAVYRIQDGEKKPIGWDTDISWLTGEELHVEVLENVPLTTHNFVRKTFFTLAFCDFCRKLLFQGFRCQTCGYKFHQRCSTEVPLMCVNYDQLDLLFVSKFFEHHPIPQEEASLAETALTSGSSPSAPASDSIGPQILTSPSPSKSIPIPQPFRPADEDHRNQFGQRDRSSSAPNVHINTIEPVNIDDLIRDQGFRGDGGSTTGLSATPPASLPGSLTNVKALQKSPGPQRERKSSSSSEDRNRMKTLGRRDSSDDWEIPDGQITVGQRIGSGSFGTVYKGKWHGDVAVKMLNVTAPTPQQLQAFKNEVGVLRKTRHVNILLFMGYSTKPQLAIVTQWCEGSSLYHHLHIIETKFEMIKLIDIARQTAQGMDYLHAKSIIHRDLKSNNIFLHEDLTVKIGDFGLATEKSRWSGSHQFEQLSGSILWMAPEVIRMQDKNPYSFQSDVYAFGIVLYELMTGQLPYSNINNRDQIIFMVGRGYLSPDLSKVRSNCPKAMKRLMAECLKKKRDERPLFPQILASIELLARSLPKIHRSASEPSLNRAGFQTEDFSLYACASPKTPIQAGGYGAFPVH
Nature of the assay: cryo-EM structure; HSP90–CDC37–BRAF^V600E complex incubated with PP5 D274N, purified by SEC, cross-linked with 1 mM BS3; one sample gave three classes: HCK (3.4 Å), HCK-P open (4.2 Å), HCK-P closed (3.9 Å); PP5 modelled by rigid-body docking. The following applies: both partners purified. (In general: SEC sorts molecules by how far they enter the pores of the column.)

A further assay deals with T2, HSP90β (human, UniProt P08238 1-724, phosphorylation at Ser226 and Ser255 found by mass spectrometry).
T2 construct: human HSP90β, full length; A 3C protease site lies between protein and tag; no cleavage step is described; Captured on Talon resin during the co-purification; source: co-purified (Talon, Streptactin, Superdex S200); not shown: His8, N-terminal, kept
T2 sequence (P08238 whole entry): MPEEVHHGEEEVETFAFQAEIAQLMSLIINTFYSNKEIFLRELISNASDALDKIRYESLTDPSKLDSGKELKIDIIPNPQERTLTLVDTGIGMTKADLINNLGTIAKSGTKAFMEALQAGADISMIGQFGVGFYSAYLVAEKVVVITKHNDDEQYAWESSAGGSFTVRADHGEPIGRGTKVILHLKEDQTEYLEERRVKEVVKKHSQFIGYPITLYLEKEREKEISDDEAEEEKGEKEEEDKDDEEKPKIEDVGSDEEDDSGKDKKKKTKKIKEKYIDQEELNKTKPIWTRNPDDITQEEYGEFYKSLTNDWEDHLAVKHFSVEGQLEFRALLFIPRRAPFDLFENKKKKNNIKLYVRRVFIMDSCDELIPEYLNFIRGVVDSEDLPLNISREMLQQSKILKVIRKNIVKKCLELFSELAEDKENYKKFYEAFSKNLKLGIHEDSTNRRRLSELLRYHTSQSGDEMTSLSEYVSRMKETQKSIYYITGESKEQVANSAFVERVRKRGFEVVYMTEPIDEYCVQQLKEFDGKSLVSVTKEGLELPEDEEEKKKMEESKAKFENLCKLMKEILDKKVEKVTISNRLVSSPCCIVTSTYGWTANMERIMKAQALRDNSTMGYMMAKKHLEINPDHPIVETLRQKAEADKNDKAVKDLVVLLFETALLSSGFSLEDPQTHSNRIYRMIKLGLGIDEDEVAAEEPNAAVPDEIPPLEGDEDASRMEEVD
The assay is described as above. Particulars: both partners purified.

B1: PP5 D274N (enzyme, human, UniProt P53041 16-499, looked up)
chain: RDEPPADGALKRAEELKTQANDYFKAKDYENAIKFYSQAIELNPSNAIYYGNRSLAYLRTECYGYALGDATRAIELDKKYIKGYYRRAASNMALGKFRAALRDYETVVKVKPHDKDAKMKYQECNKIVKQKAFERAIAGDEHKRSVVDSLDIESMTIEDEYSGPKLEDGKVTISFMKELMQWYKDQKKLHRKCAYQILVQVKEVLSKLSTLVETTLKETEKITVCGDTHGQFYDLLNIFELNGLPSETNPYIFNGDFVNRGSFSVEVILTLFGFKLLYPDHFHLLRGNHETDNMNQIYGFEGEVKAKYTAQMYELFSEVFEWLPLAQCINGKVLIMHGGLFSEDGVTLDDIRKIERNRQPPDSGPMCDLLWSDPQPQNGRSISKRGVSCQFGPDVTKAFLEENNLDYIIRSHEVKAEGYEVAHGGRCVTVFSAPNYCDQMGNKASYIHLQGSDLRPQFHQFTAVPHPNVKPMAYANTLLQLGMM
notes: human PP5 (serine/threonine protein phosphatase 5), residues 16-499, D274N; also called catalytically dead PP5
Consider B1, for which the binding result with BRAF^V600E and in the assay with HSP90β was “binds” in each case.
